From the supplement of paper PMC9170038

System: MS2 coat protein
Experiment: apparent KD of MS2 coat protein; higher = weaker reporter binding
Conditions: Eterna round: R107
Experimental: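 RNA-MaP round R107: designed RNA switches with theophylline, tryptophan, arginine or FMN aptamers are transcribed on-chip within common flanks. They are titrated with SNAP-549-labelled MS2 coat protein in RNA-MaP buffer (100 mM Tris pH 7.5, 80 mM KCl, 4 mM MgCl2), without ligand or with the indicated ligand. Median apparent KD per design.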

[1] = input ligand: theophylline 20 uM
[2] = input ligand: theophylline 2 mM
[3] = input ligand: tryptophan 2.4 mM

| Sequence | apparent KD of MS2 coat protein (input ligand: arginine 13.2 mM) | apparent KD of MS2 coat protein (input ligand: none) | apparent KD of MS2 coat protein [1] | apparent KD of MS2 coat protein [2] | apparent KD of MS2 coat protein [3] |
| --- | --- | --- | --- | --- | --- |
| AUACAUGAGGAUCACCCAUGUCAUUCAGAAGGAGCGUCAUUAUUGACAGGUAGGUCGCUGAUAAAAUUUUUAUACAUUAUGUUUA [JR_SSArginiA_Sub014] | 31.9 nM | 16.3 nM | 20.9 nM | 18.1 nM | 17.3 nM |
| AAUAUUAUGUCGGCCGCCACUUCCCACAAGAGGUGCCUGCACCCACAUGAGGAUCACCCAUGUCGAAGGACCGGGACGCUCAAUU [theeternabot_sameState_MS2_Trp_B_35] | 20.5 nM | – | 23.6 nM | 21.6 nM | – |
| UAUAGUGUGAUGGAUACCAGCAGAGAAAACGUUUAUCCUAACAUGAGGAUCACCCAUGUAUGCCCUUGGCAGCUGUUGUGUUAUA [8.O] | 28.9 nM | – | 42.5 nM | – | 30.3 nM |
| AACAUACAUGAGGAUCACCCAUGUCACGAUACCAGAUACAUGAGGAUCCCUUGGCAGCGUCAUGAGGAUCACCCAUGUUGUACAU [Exclusion Theophylline A 2] | 20.3 nM | – | 22.7 nM | – | 17.7 nM |
| ACAUGAGGAUCACCCAUGUCAUGAGGUUCACGAGGACCGGUACGGCCGCCACUCGGGCUUCGGAUCACGGAUGUACAUGAUGAUC [kmullin1] | 45.4 nM | – | 92.2 nM | 123 nM | – |
| UUAAUGAUAUAUCAUAUGAUAUAUCCAGAAGGAGCGUCAUAAAUGGCAGGUAGGUCGCUGAAGGCAACAUGAGGAUCACCCAUGU [#16 Same State - Arginine A] | 20.1 nM | 28.6 nM | 44.6 nM | 32.6 nM | 24.4 nM |
| ACCAACCACACCCUUCACUGUUUUCGCCGCCGAGGACCGGUACGGCCGCCACUCGUACAAAGACAUGAGGAUCACCCAUGUGCCU [theeternabot_exclusion_MS2_Trp_A_7] | 14.8 nM | – | 20.3 nM | 20.4 nM | – |
| UUUUUUUUGGGAAGGAGCGGGAACAUGUGGAUCUCCCAUGUACAUGAGGAUCACCCAUGUACCCAGGUAGGUCGCUCAUUUUUUU [Exclusion - Arginine B] | 28.4 nM | 25.8 nM | 38.6 nM | 37.8 nM | 26 nM |
| UACGCUAGGGCGGCCGCCACUCGGACAUGAGGAUCACCCAUGUCGAUUAAUUGAAGGACAUGAAUGAGGACCGGGCUAAGCUAGG [Same State - Tryptophan B / B] | 20.8 nM | 29.4 nM | 38.9 nM | 27.1 nM | 23.4 nM |
| ACGGAGAUUGCUAAAUGUUGGCGAGCGGAUACCAGCCUAUAAUCGGGCCCUUGGCAGCCGACAUGAGGAUCACCCAUGUAAACAA [Gelelaor] | 12.3 nM | 121 nM | 98.9 nM | 87.3 nM | 58.6 nM |
| GGUGAUCCGUAUCACCGGAUCACCGGUGAUACCAGCAUCGAAAGAUGCCCUUGGCAGCACCAACAUGAGGAUCACCCAUGUAAUA [(M)'-(T)'-(M)''-(T1)-(T2)-(M1)-(M2)_Design6b] | 69.6 nM | – | 62.4 nM | – | 143 nM |
| UUCGUUUGCGGAAGGAGCGACGGACAUCGGUGAACGACGGACAUGAGGAUCACCCAUGUACGUCAGGUAGGUCGCCGCUAAGAGU [Enbiceri] | 13.7 nM | 13.2 nM | 13.8 nM | 15.2 nM | 13.8 nM |
| UAUAUGGUGAUGGAUACCAGCAGAGAAAACGUUUAUCCUAACAUGAGGAUCACCCAUGUAUGCCCUUGGCAGCUGUUGUUAUAUA [8.M] | 26.7 nM | – | 42.3 nM | – | 35.2 nM |
| UGUAUGGACUGAAGGAGCGGGAAAAUAAGAUGAGGAUCACCCAUCUAAAAGGCGAAAGCCACCCAGGUAGGUCGCAGUCCAUACU | 27.7 nM | 8.99 nM | 34.8 nM | 8.34 nM | 7.03 nM |
| AUAUUACAUGUUAUUAUACGGUAUACUGAUACCAGUGUUUCUAUUCACCCUUGGCAGCAGCAACAUGAGGAUCACCCAUGUAUUA [JR_SSTheophyA_Sub018] | 15.6 nM | – | 19 nM | – | 18 nM |
| ACAUGAGGAUCACCCAUGUUCCUCUUUGAUACCAGUGAGUUGUUUCGCCCUUGGCAGCGAGUGUUUGUUUUUUUGUUUUGUUUGG [6.S] | 137 nM | – | 314 nM | – | 229 nM |
| UGAACAUGAGGAUCACCCAUGUAGUCAGAUACCAGACACUGCAUGGUCCCUUGGCAGCUGAAGAGCGUUUGCCAAAUAACGUUCA [Theo A SS t4] | 52 nM | – | 223 nM | – | 258 nM |
| AAUAAUAGGUGAUCUUGAGUCGUACCGUAACGAGGACCGGUACGGCCGCCACUCGAACAUGAGGAUCACCCAUGUAUGUAUGAUA [whbob_SS_trypto A_f6] | 48.6 nM | – | 128 nM | 276 nM | – |
| AAUAAUAAGGCGGCCGCCACUAAACAUGAGGAUCACCCAUGUCUCGAGCGCAUGCAUAAGGGAUGUAGGACCGGGCCAAUAAUAA [Exclusion - Tryptophan B (Freestyle 2)] | 22 nM | 29.7 nM | 32.6 nM | 27.9 nM | 23.6 nM |
| GACGGUACGUCGGCAAAGCCGAUGUGCCAGCGAGGACCGGUACGGCCGCCACUCGUACAUGAGGAUCACCCAUGUCCGGUCCGUC [Omei Trp SS A C v3] | 51.7 nM | 122 nM | 108 nM | 167 nM | 129 nM |
| AAAGGACAUGAGGAUCACCCAUGUCUCGAUACCAGCCGAUCAUCAGGCCCUUGGCAGCGAGACAAGGGUCAUGGAUCGCGGUUCU [Beerusmage] | 11.7 nM | 11.4 nM | 17.4 nM | 12.3 nM | 13.9 nM |
| CUGUACAUCUCGGCCGCCACUGCAACAUGUAGAGAUGUAUAUGUACAUGAGGAUCACCCAUGUGGCAGGACCGGGAGGUGUGCAG [SSTryp B #27] | 167 nM | 147 nM | 128 nM | 206 nM | 111 nM |
| UUCUUUGACGAUCUGGGUUUACCAGAUCGACGAGGACCGGUACGGCCGCCACUCGUGUUUUCUUUACAUGAGGAUCACCCAUGUU [#16Tryptophan A Same State] | 16.2 nM | – | 22.6 nM | 19.1 nM | – |
| UACCGAUGAAGAAGGAGCGUAUGCUUAUAUGAUGGUAACAUGAGGAUCACCCAUGUCAGUAUACAGGUAGGUCGCUUCAUCGGUA [EAB NP+V+V2 #22] | 45.3 nM | 59.1 nM | 68.6 nM | 73.3 nM | 45.8 nM |
| GACGAGUAGACGGCCGCCACUAUGCUGCGCAGCCCUAGAAACGCACAUGAGGAUCACCCAUGUCUUAGGACCGGGUCGAACUUAA [theeternabot_sameState_MS2_Trp_B_48] | 47.7 nM | – | 107 nM | 96.2 nM | – |
| UGUCGCAGGUUAGAUACCAGCGAGGCGCGGGUAAAUGUUCACAUGAGGAUCACCCAUGUUCGCCCUUGGCAGCUAGUAGGCAUAA [theeternabot_exclusion_MS2_Theo_B_36] | 23.9 nM | – | 34 nM | – | 27.3 nM |
| AUUAAUAGUUGUGAUACCAGACGAACAUGAGGAUCACCCAUGUAACUUAAGAGUGUUGAUGUCCCUUGGCAGCACUGUUUAGUUA [JR_SSTheophyB_Sub015] | 59.5 nM | – | 105 nM | – | 91.5 nM |
| AUUAUCAUGGUCAUAUAUAUAUCGUCAGAUACCAGACUAGAUAUAGUCCCUUGGCAGCUGUUACAUGAGGAUCACCCAUGUUAUA [JR_ExcTheophyA_Sub015] | 43.5 nM | – | 80.1 nM | – | 88.7 nM |
| AGCGUUCGGUUUAUGCCGGACAAUGGGUGACGAGGACCGGUACGGCCGCCACUCGGGCGCCCGGUUACAUGAGGAUCACCCAUGU [Oresrile] | 74.3 nM | – | 190 nM | 200 nM | – |
